Target: E-cadherin (human (endogenous in NHEK))
Experiment: FRET or BRET; FLIM-FRET in fixed, permeabilized NHEK cells, untreated or treated with 6 μM CHIR99021 for 48 hours; β-catenin labelled by antibodies as donor (Alexa Fluor 488), E-cadherin as acceptor (Alexa Fluor 555); FRET efficiency from regions at cell-cell junctions, dual exponential fit

Sequence of β-catenin (P35222 whole entry): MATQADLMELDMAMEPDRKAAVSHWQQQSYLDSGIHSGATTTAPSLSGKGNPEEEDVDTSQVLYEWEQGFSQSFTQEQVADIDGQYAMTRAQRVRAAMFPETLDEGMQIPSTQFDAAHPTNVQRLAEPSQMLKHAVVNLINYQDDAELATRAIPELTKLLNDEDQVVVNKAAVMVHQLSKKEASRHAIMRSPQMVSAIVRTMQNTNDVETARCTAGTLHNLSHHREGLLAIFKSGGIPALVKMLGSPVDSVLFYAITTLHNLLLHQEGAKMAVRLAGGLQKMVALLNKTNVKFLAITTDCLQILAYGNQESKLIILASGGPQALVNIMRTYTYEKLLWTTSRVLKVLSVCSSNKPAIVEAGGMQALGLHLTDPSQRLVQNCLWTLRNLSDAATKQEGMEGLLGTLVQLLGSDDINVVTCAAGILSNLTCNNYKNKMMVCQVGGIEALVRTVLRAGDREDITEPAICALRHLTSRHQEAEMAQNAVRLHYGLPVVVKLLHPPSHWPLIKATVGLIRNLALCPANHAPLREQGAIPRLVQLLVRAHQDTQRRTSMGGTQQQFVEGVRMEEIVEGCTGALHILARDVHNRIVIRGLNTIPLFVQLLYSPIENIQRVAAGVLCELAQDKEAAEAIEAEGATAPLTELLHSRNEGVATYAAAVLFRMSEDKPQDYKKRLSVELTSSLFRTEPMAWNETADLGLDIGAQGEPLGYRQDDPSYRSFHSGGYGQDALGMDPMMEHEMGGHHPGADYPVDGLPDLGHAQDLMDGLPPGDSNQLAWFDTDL
Sequence of E-cadherin (human (endogenous in NHEK)) (P12830 23-882): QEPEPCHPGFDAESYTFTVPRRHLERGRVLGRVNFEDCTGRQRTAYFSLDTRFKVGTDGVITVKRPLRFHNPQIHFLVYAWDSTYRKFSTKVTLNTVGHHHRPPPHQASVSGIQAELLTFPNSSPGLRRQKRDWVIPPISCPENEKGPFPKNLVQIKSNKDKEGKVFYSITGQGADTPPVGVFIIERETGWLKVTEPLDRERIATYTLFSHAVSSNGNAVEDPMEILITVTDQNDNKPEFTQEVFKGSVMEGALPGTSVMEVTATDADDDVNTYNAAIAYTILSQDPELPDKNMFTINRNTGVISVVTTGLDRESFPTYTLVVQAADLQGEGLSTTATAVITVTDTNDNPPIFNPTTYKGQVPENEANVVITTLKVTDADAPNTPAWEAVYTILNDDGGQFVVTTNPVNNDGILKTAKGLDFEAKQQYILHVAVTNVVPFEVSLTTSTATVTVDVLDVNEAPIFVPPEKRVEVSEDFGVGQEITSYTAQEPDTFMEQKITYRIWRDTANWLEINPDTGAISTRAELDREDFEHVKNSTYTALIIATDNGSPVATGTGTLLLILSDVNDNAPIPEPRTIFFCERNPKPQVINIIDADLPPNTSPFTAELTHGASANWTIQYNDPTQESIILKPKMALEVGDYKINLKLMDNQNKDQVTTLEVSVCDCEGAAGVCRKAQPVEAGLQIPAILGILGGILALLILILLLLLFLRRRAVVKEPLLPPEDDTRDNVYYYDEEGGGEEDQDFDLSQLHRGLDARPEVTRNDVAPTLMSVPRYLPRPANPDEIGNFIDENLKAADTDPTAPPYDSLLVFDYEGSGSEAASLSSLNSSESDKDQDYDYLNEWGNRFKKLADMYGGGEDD

Question: “β-catenin (from UniProt P35222 1-781) (natural protein)” was tested. Which fold change of FRET efficiency, CHIR-treated against untreated cells did it give?
Answer: 3 fold

Reference: PMC11838001
